Source: paper doi:10.1101/2022.11.10.515920 (bioRxiv, 2022)

B1: glucose oxidase expressed in BY-2 lysate (enzyme)
chain: LPHYIRSNGIEASLLTDPKDVSGRTVDYIIAGGGLTGLTTAARLTENPNISVLVIESGSYESDRGPIIEDLNAYGDIFGSSVDHAYETVELATNNQTALIRSGNGLGGSTLVNGGTWTRPHKAQVDSWETVFGNEGWNWDNVAAYSLQAERARAPNAKQIAAGHYFNASCHGVNGTVHAGPRDTGDDYSPIVKALMSAVEDRGVPTKKDFGCGDPHGVSMFPNTLHEDQVRSDAAREWLLPNYQRPNLQVLTGQYVGKVLLSQNGTTPRAVGVEFGTHKGNTHNVYAKHEVLLAAGSAVSPTILEYSGIGMKSILEPLGIDTVVDLPVGLNLQDQTTATVRSRITSAGAGQGQAAWFATFNETFGDYSEKAHELLNTKLEQWAEEAVARGGFHNTTALLIQYENYRDWIVNHNVAYSELFLDTAGVASFDVWDLLPFTRGYVHILDKDPYLHHFAYDPQYFLNELDLLGQAAATQLARNISNSGAMQTYFAGETIPGDNLAYDADLSAWTEYIPYHFRPNYHGVGTCSMMPKEMGGVVDNAARVYGVQGLRVIDGSIPPTQMSSHVMTVFYAMALKISDAILEDYASMQ
B2: glucose oxidase, commercial standard purified from Aspergillus niger (enzyme)
chain: B1 chain

Molecular target: the molecule itself
Experiment: SEC

Protein | stoichiometry N
B1 | 2
B2 | 2
